Experiment in all cases: fluorescence polarisation
(In general: In fluorescence polarisation assays a small probe gives low polarisation when free and higher when bound to something large.)

Assay [1] addresses (His)6-tagged Ubp-M BUZ domain (UniProt Q9Y5T5 22-143).
Target sequence in this assay (Q9Y5T5 22-143): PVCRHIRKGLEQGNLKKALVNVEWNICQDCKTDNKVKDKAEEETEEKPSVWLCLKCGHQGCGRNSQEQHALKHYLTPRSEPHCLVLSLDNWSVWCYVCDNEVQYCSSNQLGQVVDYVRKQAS
The target is the same in assay [2]. This is another data set of the same source.
Target sequence in this assay (Q9Y5T5 whole entry, looked up, the tested form may be a part): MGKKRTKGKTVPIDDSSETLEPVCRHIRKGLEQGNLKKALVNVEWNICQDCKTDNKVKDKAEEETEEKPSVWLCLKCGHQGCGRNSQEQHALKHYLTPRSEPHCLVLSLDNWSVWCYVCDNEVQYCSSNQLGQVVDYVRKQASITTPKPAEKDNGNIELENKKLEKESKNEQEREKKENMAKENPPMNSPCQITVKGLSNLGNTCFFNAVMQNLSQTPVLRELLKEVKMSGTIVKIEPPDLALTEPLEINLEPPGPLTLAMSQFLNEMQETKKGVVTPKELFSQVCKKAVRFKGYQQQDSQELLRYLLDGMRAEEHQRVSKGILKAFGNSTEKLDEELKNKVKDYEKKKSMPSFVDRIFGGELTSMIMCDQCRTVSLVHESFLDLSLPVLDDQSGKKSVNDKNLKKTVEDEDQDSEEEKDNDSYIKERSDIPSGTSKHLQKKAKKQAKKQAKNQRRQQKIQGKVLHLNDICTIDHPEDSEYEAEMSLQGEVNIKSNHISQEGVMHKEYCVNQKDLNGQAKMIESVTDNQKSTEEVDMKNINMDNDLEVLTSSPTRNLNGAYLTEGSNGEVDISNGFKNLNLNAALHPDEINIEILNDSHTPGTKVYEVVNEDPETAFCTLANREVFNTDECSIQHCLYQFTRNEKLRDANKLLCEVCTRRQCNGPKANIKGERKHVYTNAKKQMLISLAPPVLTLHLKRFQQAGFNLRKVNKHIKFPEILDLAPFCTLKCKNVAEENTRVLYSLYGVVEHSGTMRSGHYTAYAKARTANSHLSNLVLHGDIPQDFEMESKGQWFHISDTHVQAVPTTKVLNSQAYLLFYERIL
For another assay, the target named is GST-HDAC6 BUZ (UniProt Q9UBN7 1059-1215).
Assay [3] addresses T1, HDAC6 BUZ domain (without GST tag) (UniProt Q9UBN7 1059-1215).
T1 sequence (looked up): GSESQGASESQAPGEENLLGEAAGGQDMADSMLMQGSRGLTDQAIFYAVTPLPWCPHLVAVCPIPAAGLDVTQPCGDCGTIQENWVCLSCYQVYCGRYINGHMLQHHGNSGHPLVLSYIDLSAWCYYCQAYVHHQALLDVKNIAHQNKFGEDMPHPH

Results on 6 molecules are retold here after PMC3005221 (Biochemistry, 2010).

[ ]: non-standard residue; d: D form. The star is where a group is joined. FITC = O=C1OC2(c3ccc(O)cc3Oc3cc(O)ccc32)c2ccc(NC(=S)*)cc21; Abu = CC[C@H](N)C(=O)O; βAla = NCCC(=O)O

The term Kd denotes the concentration at which binding is half-saturated.

B1: FITC-β-Ala-β-Ala-IAKGG (peptide)
peptide: {FITC-βAla-βAla}-IAKGG-OH
SMILES: CC[C@H](C)[C@H](NC(=O)CCNC(=O)CCNC(=S)Nc1ccc2c(c1)C(=O)OC21c2ccc(O)cc2Oc2cc(O)ccc21)C(=O)N[C@@H](C)C(=O)N[C@@H](CCCCN)C(=O)NCC(=O)NCC(=O)O
In the case of B1, in assay [1], the Kd came to 12 ± 3 µM.

B2: FITC-β-Ala-β-Ala-YUIGG (peptide)
chain: {FITC-βAla-βAla}-Y[Abu]IGG-OH
SMILES: CC[C@H](NC(=O)[C@H](Cc1ccc(O)cc1)NC(=O)CCNC(=O)CCNC(=S)Nc1ccc2c(c1)C(=O)OC21c2ccc(O)cc2Oc2cc(O)ccc21)C(=O)N[C@H](C(=O)NCC(=O)NCC(=O)O)[C@@H](C)CC
For the molecule B2, the dissociation constant Kd in assay [2] is 12 ± 2 µM; in the assay with GST-HDAC6 BUZ, 1300 ± 100 nM.

B3: FITC-β-Ala-β-Ala-LQDGF (peptide)
peptide: {FITC-βAla-βAla}-LQDGF-OH
SMILES: CC(C)C[C@H](NC(=O)CCNC(=O)CCNC(=S)Nc1ccc2c(c1)C(=O)OC21c2ccc(O)cc2Oc2cc(O)ccc21)C(=O)N[C@@H](CCC(N)=O)C(=O)N[C@@H](CC(=O)O)C(=O)NCC(=O)N[C@@H](Cc1ccccc1)C(=O)O
In the case of B3, the Kd in assay [1] was over 150 µM.

B4: FITC-β-Ala-β-Ala-RGMGG (peptide)
peptide: {FITC-βAla-βAla}-RGMGG-OH
SMILES: CSCC[C@H](NC(=O)CNC(=O)[C@H](CCCNC(=N)N)NC(=O)CCNC(=O)CCNC(=S)Nc1ccc2c(c1)C(=O)OC21c2ccc(O)cc2Oc2cc(O)ccc21)C(=O)NCC(=O)NCC(=O)O
Molecule B4 yielded a Kd in assay [1] of 17 ± 3 µM.

B5: FITC-β-Ala-β-Ala-NALGG (peptide)
peptide: {FITC-βAla-βAla}-NALGG-OH
SMILES: CC(C)C[C@H](NC(=O)[C@H](C)NC(=O)[C@H](CC(N)=O)NC(=O)CCNC(=O)CCNC(=S)Nc1ccc2c(c1)C(=O)OC21c2ccc(O)cc2Oc2cc(O)ccc21)C(=O)NCC(=O)NCC(=O)O
With B5, the figures for the Kd in assay [3] and in assay [1] were 230 ± 20 nM and 33 ± 7 µM, respectively.

B6: FITC-β-Ala-β-Ala-YGFGG (peptide)
peptide: {FITC-βAla-βAla}-YGFGG-OH
SMILES: O=C(O)CNC(=O)CNC(=O)[C@H](Cc1ccccc1)NC(=O)CNC(=O)[C@H](Cc1ccc(O)cc1)NC(=O)CCNC(=O)CCNC(=S)Nc1ccc2c(c1)C(=O)OC21c2ccc(O)cc2Oc2cc(O)ccc21
Molecule B6 returned a Kd in assay [1] of 13 ± 3 µM.
